According to US20210284730A1 (Janssen / Centocor, published 2021):

Tests used:
human CD33 [1] = target: T1, human CD33 (human, UniProt P20138 18-364); assay: FACS binding to MOLM-13 tumor cell line (CD33+)
T1 construct: whole, on cells; The target is CD33 on CD33+ tumor cell lines; also called CD33 on MOLM-13, Kasumi-1, OCI-AML-3 and Kasumi-3 cells

human CD33 [2] = target: T1, human CD33; assay: FACS binding to Kasumi-1 tumor cell line (CD33+)
human CD33 [3] = target: T1, human CD33; assay: FACS binding to OCI-AML-3 tumor cell line (CD33+)

T1 sequence (P20138 18-364): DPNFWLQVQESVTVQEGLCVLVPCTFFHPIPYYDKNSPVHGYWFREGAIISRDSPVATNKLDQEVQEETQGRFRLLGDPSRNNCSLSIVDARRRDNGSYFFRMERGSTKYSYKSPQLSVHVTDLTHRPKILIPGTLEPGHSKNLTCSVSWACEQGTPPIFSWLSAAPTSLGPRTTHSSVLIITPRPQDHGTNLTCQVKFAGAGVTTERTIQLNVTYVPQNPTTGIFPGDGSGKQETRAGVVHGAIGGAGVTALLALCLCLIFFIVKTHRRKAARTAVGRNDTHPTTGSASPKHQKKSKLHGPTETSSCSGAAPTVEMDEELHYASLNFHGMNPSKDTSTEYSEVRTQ

B1: anti-CD33 antibody (clone C33B904) (antibody, V domains shown)
VH: EVQLVESGGGLVQPGRSLRLSCAASGFTFDDYAMHWVRQAPGKGLEWVSGIGWSGGSIVYADSVKGRFTISRDNAKNSLYLQMNSLRAEDTALYYCAKDSPYGDFFDYWGQGTLVTVSS
VL: DIVMTQSPDSLAVSLGERATINCKSSQTVFYSSNNKNYLAWYQQKPGQPPKLLISWASTRKSGVPDRFSGSGSGTDFTLTVSSLQAEDVAVYYCQHYYSTPYTFGQGTKLEIK
notes: also called anti-CD33 clone C33B904; anti-CD33 mAb
- EC50 (human CD33 [1]): 134 nM
- EC50 (human CD33 [2]): 82.2 nM
- EC50 (human CD33 [3]): 16.4 nM
